Data as given in paper PMC12419008.

Experiments:
Assay in all cases: SPR
[1] = biological target: APG777 (human (humanized IgG1))
FcγRIIa (H131) (human) = FcγRIIa (H131) (human) (UniProt P12318)
FcγRIIa (R131) (human) = biological target: FcγRIIa (R131) (human)
FcγRIIb (human) = FcγRIIb (human) (UniProt P31994)
FcγRIIIa (V158) (human) = biological target: FcγRIIIa (V158) (human)
FcγRIIIa (F158) (human) = FcγRIIIa (F158) (human) (UniProt P08637)
FcγRI (human) = FcγRI (human) (UniProt P12314)
Sequence of UniProt P12314 (P12314 16-292): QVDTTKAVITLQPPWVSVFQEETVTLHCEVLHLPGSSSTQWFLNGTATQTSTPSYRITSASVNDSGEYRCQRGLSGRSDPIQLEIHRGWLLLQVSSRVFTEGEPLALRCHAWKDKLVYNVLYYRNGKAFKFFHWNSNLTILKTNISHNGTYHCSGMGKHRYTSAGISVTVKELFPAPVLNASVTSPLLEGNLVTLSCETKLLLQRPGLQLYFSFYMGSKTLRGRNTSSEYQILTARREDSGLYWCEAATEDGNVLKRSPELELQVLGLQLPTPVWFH

Sequence of UniProt P31994 (P31994 43-217): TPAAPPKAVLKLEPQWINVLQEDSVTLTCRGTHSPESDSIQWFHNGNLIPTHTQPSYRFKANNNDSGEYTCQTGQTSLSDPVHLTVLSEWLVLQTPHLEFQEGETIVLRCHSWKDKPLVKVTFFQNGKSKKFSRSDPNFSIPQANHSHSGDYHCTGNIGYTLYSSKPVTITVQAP
Sequence of FcγRIIIa (V158) (human) (P08637 17-208): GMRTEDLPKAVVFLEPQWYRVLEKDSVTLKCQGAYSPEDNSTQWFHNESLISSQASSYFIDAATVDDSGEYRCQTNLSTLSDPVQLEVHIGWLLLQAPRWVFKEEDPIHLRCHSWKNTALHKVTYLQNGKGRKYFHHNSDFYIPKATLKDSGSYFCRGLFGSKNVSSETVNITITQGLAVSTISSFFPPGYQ
Sequence of FcγRIIa (R131) (human) (P12318 34-217): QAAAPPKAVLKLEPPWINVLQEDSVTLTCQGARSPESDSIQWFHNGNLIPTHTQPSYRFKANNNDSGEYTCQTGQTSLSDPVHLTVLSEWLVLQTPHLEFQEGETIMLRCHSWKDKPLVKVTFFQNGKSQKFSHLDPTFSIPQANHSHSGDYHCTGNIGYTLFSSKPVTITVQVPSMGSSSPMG

Kd [1] | Kd (FcγRIIa (H131) (human)) | Kd (FcγRIIa (R131) (human)) | Kd (FcγRIIb (human)) | Kd (FcγRIIIa (V158) (human)) | Kd (FcγRIIIa (F158) (human)) | Kd (FcγRI (human)) | Substance
0.0944 µM | – | – | – | – | – | – | human neonatal Fc receptor (huFcRn) (from UniProt P55899 24-365)
– | 2.93 µM | 5.95 µM | 15.3 µM | 0.193 µM | 0.957 µM | – | rituximab (antibody)
– | – | – | – | 12.1 µM | 56.2 µM | 7.88 µM | APG777 (antibody)
